B1: HDV Ribozyme (parent)
chain: GGCCGGCAUGGUCCCAGCCUCCUCGCUGGCGCCGGCUGGGCAACAUUCCGAGGGGACCGUCCCCUCGGUAAUGGCGAAUGGGACCCA

Variants of: B1
Assay: self-cleavage, relative activity (ratio to wild type); higher = more cleavage; co-transcriptional

Variant | self-cleavage
U23G C63G | 0.688
U23C G50A | 0.95
U23C G50C | 0.864
U23C G50U | 0.789
U23G C61U | 0.923
U23G C61A | 0.743
U23C G55U | 1.08
U23C G55C | 0.914
U23C G52U | 1.11
U23C G52A | 0.906
U23A C64U | 0.935
U23A C64G | 1.03
U23C U27A | 0.898
U23A U72C | 0.332
U23A U72A | 0.773
U23A C32A | 0.251
U23G G50C | 0.767
U23G G50A | 0.614
U23C G31C | 0.141
U23A U37G | 0.415
U23G G68A | 0.565
U23C A56G | 0.87
U23C A56C | 0.942
U23A G67C | 1.22

Variant | self-cleavage
U23A G67U | 0.849
U23A G67A | 0.782
U23A G73C | 0.554
U23A G73A | 0.575
U23C C49U | 0.852
U23C C49A | 0.987
U23C C49G | 0.655
U23G C44A | 0.0791
U23C C66U | 0.95
U23C C66G | 0.923
C24A A42U | 0.0639
C24A A42G | 0.166
U23G A78C | 0.106
U23C C85A | 1.01
U23G G55U | 0.502
U23G G55A | 0.67
U23C G39C | 0.244
U23C G39U | 0.716
U23C U79A | 0.554
U23C U79C | 0.232
U23G C48A | 0.807
U23C A83C | 0.302
U23C A83G | 0.742
U23C A83U | 0.767

Variant | self-cleavage
U23A G74A | 0.465
U23C A78G | 0.739
U23C A78U | 0.151
U23A C30A | 0.466
U23A C30U | 0.554
C22U G74A | 0.113
U23C A77C | 0.256
U23A U27A | 0.675
U23A G68U | 1.09
U23A G68A | 0.906
U23A G68C | 0.831
U23C G53C | 0.927
U23G U60G | 0.665
U23C C32G | 0.0415
U23C C84G | 0.739
U23A G40C | 0.181
U23G A43G | 0.138
U23G A43C | 0.131
U23A C85A | 0.68
U23A C85G | 0.942
U23C G81U | 0.499
U23G C64A | 0.89
U23G C64U | 0.61
U23G U37A | 0.0678

Variant | self-cleavage
U23A C66A | 0.883
U23A C66U | 0.943
U23G U65A | 0.886
C24A C26U | 1.05
C24A C26G | 0.858
U23C C61G | 0.945
U23C C61U | 0.975
U23G C33G | 0.161
U23A G25C | 0.208
U23C G59U | 0.975
U23C G59C | 1.26
U23C G40A | 0.8
U23C G40C | 0.0852
U23A C26G | 0.978
U23A G80A | 0.18
U23A G80U | 0.113
U23G G40C | 0.135
U23G G40A | 0.76
U23G U72A | 0.341
U23G U72G | 0.214
U23G G35C | 0.0639
U23G G35A | 0.324
U23G G35U | 0.283
U23C G38C | 0.277

Variant | self-cleavage
U23C G38A | 0.17
U23C G74A | 0.217
U23C G74C | 0.277
U23A G34U | 0.149
U23A G34A | 0.121
U23A G34C | 0.339
U23A U46A | 0.623
U23A U46C | 0.929
U23A U46G | 1.06
U23C G34U | 0.145
C24A C30U | 0.0723
C24A C30G | 0.089
U23A G29U | 0
U23A G29A | 0.0804
U23A G29C | 0.0923
U23A C49G | 1.16
U23A C49A | 0.538
U23C C33A | 0.0378
U23C C33G | 0
U23G U46A | 0.712
U23G U46C | 0.462
U23C A70G | 0.95
U23C A70C | 0.939
U23G A87G | 0.645

Variant | self-cleavage
C24A A70C | 0.852
C24A A70U | 0.612
U23G C49U | 0.867
U23G C49A | 0.831
U23G U47A | 0.864
U23G U47G | 0.731
U23G U47C | 0.332
C22U G82A | 0.101
U23C C36G | 0.125
U23C C36A | 0.172
C24A A87C | 0.645
U23C A87U | 0.953
U23A A83U | 0.449
U23A A83G | 0.767
U23G C57A | 0.656
U23G C57G | 0.831
U23G C57U | 0.785
U23G G53A | 0.306
U23G G53C | 0.759
U23G G53U | 0.866
U23G G31U | 0.0639
U23G G31A | 0.175
U23C C44U | 0.554
U23G A45U | 0.312

Variant | self-cleavage
U23G C30G | 0.0536
U23G C30U | 0.203
U23G C30A | 0.145
U23C A42C | 0.161
U23C A42U | 0.415
U23A G50A | 1.06
U23A G50C | 0.831
U23C G54U | 1.01
U23C G54A | 0.888
U23C C86G | 0.95
U23A A42G | 0.499
U23A A45U | 0.727
U23A A45G | 1.15
U23A G76A | 0.978
U23A C63A | 0.812
U23A C63G | 0.877
U23A A56C | 0.929
U23A C36A | 0.177
U23A G55C | 1.12
U23A G55A | 0.969
C22U U37A | 0.166
C22U U37G | 0.101
U23G G25A | 0.142
C24A A56G | 0.404

Variant | self-cleavage
C24A A83G | 0.626
U23C U72G | 0.532
U23C U72A | 0.776
U23C C57G | 0.6
U23C C57U | 0.743
U23C G25U | 0.158
U23C G25A | 0.101
U23C G25C | 0.138
U23A U65C | 1.09
U23A U65G | 1.18
U23G G39U | 0.405
U23C G67U | 0.743
U23G A77C | 0.172
U23G A77U | 0.237
U23A G82U | 0.425
U23A G82C | 0.326
U23A G82A | 0.266
U23C U47A | 1.03
U23G C41A | 0.465
U23A U69A | 1.01
U23A U69C | 0.942
U23A C44G | 0.594
U23A C44U | 0.566
U23A C44A | 0.612

Variant | self-cleavage
U23G A70G | 0.59
U23G C62A | 0.712
U23G C62U | 0.403
U23G C66U | 0.65
U23G C26U | 0.997
U23C A43U | 0.298
U23A G31C | 0.44
U23A G31U | 0.271
C24A A51U | 0.747
C24A A43G | 0.256
C24A A43U | 0.258
U23C C41A | 0.789
U23C C41U | 0.959
U23A A70G | 0.931
U23A G52U | 0.819
U23A G52C | 0.946
U23A C41U | 1.14
U23A G53A | 0.95
U23A G53U | 0.923
U23A G53C | 1.12
U23C C75A | 0.166
U23C C75U | 0.0739
U23C A71C | 0.415
U23C A71U | 0.808

Variant | self-cleavage
C22U U47C | 0.424
C22U U47A | 0.584
U23C C26U | 1.26
U23C C26A | 1.11
U23A C33G | 0.35
U23G U27C | 0.511
U23G U27A | 0.594
U23G G52A | 0.554
U23G A56G | 0.787
U23G A56C | 0.978
U23C G28C | 0.0639
U23C G28U | 0.249
U23G A71G | 0.831
U23G A71U | 0.633
U23G A71C | 0.256
U23G G80C | 0.147
U23G G76U | 1.05
U23C G29A | 0.0665
U23C G29U | 0.142
C22U U79A | 0.0923
U23A A78U | 0.256
U23A A71G | 0.8
U23A A71U | 0.831
U23C C24A | 0.287

Variant | self-cleavage
U23G G59C | 0.9
U23G G59A | 0.708
U23A C24G | 0.113
U23C A51C | 1.08
U23C G76C | 1.05
U23C U69C | 0.886
U23G G54C | 0.598
U23C C48G | 1.05
U23C C48U | 0.806
U23C C48A | 1.12
U23C U46C | 0.745
U23C U46G | 0.739
U23C U46A | 0.538
U23A G28U | 0.116
U23A C84U | 0.762
U23A C84G | 0.601
U23A C86G | 0.85
U23A C86U | 0.872
U23G G82C | 0.222
C22U U69C | 0.914
C22U U69G | 0.759
C22U U69A | 0.554
U23A A77G | 1.03
U23A G39A | 0.408

Variant | self-cleavage
U23C U65G | 0.95
U23C U65A | 1.09
U23C U65C | 1.02
U23G A83G | 0.237
U23G G67A | 0.628
U23G G38A | 0.0923
U23G G38U | 0.0583
U23G G38C | 0.095
U23A C58U | 1.25
U23A C58G | 1.34
U23C U37G | 0.266
U23C C58G | 0.673
U23C C58A | 1.18
U23C C58U | 0.928
U23G C85A | 0.787
U23A G38A | 0.0963
U23A G38U | 0.208
U23A G38C | 0.192
C22U U27G | 0.554
U23C C63U | 0.984
U23C C63A | 0.86
U23G A51C | 0.63
U23G A51U | 0.705
U23G A51G | 0.8

Variant | self-cleavage
U23G G29C | 0.196
U23G C86A | 0.607
U23G C86U | 0.877
U23G C86G | 0.525
C24A A77U | 0.185
C24A A77G | 0.256
U23A U79C | 0.369
U23A U79A | 0.646
C22U U23A | 0.845
C22U U23G | 0.246
C24A A45G | 0.898
C24A A45U | 0.541
U23G G81U | 0.117
U23G G81A | 0.0426
U23G G81C | 0.166
U23G C84G | 0.388
U23G C84U | 0.342
C22U U46C | 0.268
C22U U46A | 0.295
U23G U69A | 0.499
U23G U69G | 0.431
U23A C61U | 1.25
U23A C62A | 0.872
U23C C64G | 0.76

Variant | self-cleavage
U23C C64A | 0.743
U23G A42G | 0.0665
U23G A42U | 0.0997
U23A A51C | 0.731
U23A A51G | 1.01
U23C C62G | 0.987
U23C C62U | 1.03
U23G G34C | 0.0415
C24A A78G | 0.492
U23C G82U | 0.312
U23C G82A | 0.314
U23A G54U | 0.937
U23A A43U | 0.481
U23A A43C | 0.312
C22U G81C | 0.237
C22U G81U | 0.04
U23A C48U | 1.21
U23A C48G | 0.898
U23G C36A | 0.203
C22U U65G | 0.845
C22U U65A | 0.831
U23A U47C | 1.14

— the RNAGym collection of RNA variant scans (doi:10.7554/elife.80360)
